Target: RNAP containing His-RpoA (wild type) (Pseudomonas aeruginosa PAO1) (UniProt O52760+Q51561+Q9HWC9+Q9HTM1)
Assay: EMSA
Details: 10 mM Tris-HCl, 50 mM KCl, 1 mM DTT, 1% glycerin, 10 mM MgCl2, 1 ug/ul poly(dI-dC), pH 7.5, room temperature, 30 min; 30 ng probe, 0.2 ug protein

RNAP containing His-RpoA (wild type) (Pseudomonas aeruginosa PAO1), sequence (O52760 whole entry, chain 1 of 4): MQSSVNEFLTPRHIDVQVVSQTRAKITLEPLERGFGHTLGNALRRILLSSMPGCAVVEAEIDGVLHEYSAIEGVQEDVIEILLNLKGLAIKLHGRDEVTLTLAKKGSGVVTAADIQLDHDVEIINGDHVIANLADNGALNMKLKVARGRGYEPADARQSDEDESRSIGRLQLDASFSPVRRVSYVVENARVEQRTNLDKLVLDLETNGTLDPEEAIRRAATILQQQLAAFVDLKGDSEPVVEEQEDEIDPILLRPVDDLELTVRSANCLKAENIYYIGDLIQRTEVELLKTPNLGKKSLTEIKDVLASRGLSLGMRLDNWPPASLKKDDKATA
RNAP containing His-RpoA (wild type) (Pseudomonas aeruginosa PAO1), sequence (Q51561 whole entry, chain 2 of 4): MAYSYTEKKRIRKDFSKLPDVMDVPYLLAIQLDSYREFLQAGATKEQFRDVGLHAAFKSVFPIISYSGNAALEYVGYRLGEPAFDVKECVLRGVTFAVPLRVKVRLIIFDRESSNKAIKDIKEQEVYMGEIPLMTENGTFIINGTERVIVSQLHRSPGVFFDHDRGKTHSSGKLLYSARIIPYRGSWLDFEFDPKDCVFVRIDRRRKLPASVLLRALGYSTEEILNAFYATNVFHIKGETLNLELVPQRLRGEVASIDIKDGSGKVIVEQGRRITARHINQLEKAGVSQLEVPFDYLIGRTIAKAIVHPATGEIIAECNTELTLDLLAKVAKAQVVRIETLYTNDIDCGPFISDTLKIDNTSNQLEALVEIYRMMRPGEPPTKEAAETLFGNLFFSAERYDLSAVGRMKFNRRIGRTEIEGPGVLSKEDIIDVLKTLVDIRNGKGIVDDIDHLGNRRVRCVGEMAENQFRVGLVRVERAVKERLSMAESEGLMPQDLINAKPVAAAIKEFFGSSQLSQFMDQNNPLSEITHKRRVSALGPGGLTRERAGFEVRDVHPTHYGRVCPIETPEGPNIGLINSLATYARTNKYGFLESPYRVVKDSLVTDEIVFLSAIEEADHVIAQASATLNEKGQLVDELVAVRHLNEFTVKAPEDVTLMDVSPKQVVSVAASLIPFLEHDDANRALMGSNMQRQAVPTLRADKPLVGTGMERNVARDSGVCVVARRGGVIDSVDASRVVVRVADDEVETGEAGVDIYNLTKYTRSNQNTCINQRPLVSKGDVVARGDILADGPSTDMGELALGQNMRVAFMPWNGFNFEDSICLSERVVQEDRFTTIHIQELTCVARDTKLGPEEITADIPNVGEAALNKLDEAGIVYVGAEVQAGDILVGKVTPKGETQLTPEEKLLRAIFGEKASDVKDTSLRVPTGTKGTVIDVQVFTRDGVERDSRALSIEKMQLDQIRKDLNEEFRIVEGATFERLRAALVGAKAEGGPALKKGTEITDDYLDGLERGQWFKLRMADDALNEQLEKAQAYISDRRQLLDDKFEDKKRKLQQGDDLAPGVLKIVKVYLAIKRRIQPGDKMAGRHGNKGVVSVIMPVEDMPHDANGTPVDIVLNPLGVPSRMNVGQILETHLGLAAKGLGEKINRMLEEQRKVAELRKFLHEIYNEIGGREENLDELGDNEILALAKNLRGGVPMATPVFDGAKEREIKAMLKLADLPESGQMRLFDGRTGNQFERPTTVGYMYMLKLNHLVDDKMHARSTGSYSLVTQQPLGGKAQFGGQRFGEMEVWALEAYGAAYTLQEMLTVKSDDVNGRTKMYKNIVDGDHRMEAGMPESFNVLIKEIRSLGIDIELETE
RNAP containing His-RpoA (wild type) (Pseudomonas aeruginosa PAO1), sequence (Q9HWC9 whole entry, chain 3 of 4): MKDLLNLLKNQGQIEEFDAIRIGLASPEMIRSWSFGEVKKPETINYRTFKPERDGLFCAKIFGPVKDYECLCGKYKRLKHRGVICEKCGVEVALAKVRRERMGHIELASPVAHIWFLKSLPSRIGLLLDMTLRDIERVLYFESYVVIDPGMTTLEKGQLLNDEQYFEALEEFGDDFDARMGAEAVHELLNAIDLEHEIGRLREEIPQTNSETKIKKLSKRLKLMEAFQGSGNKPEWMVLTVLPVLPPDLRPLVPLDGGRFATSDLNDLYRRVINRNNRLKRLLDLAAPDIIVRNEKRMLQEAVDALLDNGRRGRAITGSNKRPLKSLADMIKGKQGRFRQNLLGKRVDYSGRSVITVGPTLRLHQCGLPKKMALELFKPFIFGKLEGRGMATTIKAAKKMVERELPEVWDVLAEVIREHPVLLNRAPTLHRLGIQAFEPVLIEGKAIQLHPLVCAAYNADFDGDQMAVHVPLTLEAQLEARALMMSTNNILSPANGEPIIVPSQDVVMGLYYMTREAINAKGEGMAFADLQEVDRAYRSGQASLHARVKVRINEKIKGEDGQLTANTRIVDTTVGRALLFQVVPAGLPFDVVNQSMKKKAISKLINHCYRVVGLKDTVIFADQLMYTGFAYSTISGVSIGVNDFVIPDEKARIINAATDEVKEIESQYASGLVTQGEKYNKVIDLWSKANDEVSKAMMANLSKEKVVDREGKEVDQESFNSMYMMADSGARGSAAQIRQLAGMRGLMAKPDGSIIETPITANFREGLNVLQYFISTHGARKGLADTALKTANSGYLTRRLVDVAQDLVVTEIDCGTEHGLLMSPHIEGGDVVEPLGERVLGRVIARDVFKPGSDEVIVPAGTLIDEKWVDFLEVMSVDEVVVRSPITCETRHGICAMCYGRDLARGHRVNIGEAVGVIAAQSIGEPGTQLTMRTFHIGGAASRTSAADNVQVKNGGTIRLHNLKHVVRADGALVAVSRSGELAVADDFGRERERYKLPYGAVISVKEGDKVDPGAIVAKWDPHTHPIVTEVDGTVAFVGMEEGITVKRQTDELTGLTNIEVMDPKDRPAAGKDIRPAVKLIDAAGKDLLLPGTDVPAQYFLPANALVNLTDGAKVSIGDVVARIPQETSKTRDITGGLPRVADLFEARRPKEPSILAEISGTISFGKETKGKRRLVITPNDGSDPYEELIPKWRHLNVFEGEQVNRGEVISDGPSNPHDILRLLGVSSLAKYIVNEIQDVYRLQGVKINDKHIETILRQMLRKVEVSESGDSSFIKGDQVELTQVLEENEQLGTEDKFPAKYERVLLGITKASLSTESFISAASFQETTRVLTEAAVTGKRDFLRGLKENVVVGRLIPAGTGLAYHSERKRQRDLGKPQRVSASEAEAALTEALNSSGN
RNAP containing His-RpoA (wild type) (Pseudomonas aeruginosa PAO1), sequence (Q9HTM1 whole entry, chain 4 of 4): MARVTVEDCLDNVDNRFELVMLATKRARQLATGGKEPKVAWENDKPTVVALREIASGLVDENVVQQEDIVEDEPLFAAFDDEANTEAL

“AGTCTCTGAGCCCTCCGGCAGCTACCCGCACGAGGCGTCGCAACGGGAAAATCGATCGCGCGCCGCGGGTGTGCGGCTTATTCCATCGAAAGCACTGTCCATAACCATCGACTGTTACAGAAAACGAAAAACCATGTATCACTGTTCGTGATAATCAAAATCTCGTCGTTCGATTAGTTCCCTGCCGGAGCAGCCCGCAGACTTCGCCAATCCCGAAAAACCGACTGGCGGAGTCAAGCATGGTTTTTT (double strand) [PmexE probe (mexEF-oprN promoter)]” was tested, and the binding was “binds”.
